Reference: publication doi:10.1101/2021.12.07.471597 (bioRxiv, 2021)

Tests used:
VHH72.66-Fc = VHH72.66-Fc (llama); test: BLI
VHH72.65-Fc = VHH72.65-Fc (llama); test: BLI
VHH72.76-Fc = VHH72.76-Fc (llama); test: BLI
VHH72.71-Fc = VHH72.71-Fc (llama); test: BLI
VHH72.6-Fc = VHH72.6-Fc (llama); test: BLI
VHH72-Fc = VHH72-Fc (llama); test: BLI
[1] = biological target: biotinylated SARS-CoV-2 RBD (Wuhan) (SARS-CoV-2, UniProt P0DTC2, biotin); test: flow cytometry on cells

Measured: binding result

B1: SARS-CoV-1 RBD (domain or fragment)
chain: not shown
binds: VHH72.66-Fc | VHH72.65-Fc | VHH72.76-Fc | VHH72.71-Fc | VHH72.6-Fc | VHH72-Fc

B2: VHH72 displayed on yeast (VHH)
VHH: QVQLQESGGGLVQAGGSLRLSCAASGRTFSEYAMGWFRQAPGKEREFVATISWSGGSTYYTDSVKGRFTISRDNAKNTVYLQMNSLKPDDTAVYYCAAAGLGTVVSEWDYDYDYWGQGTQVTVSS
binds: [1]
